Test results: article PMC4983702

Biological target: Aar-MBP fusion protein (E. coli (EAEC 042))
Test: SPR

B1: AggR-MBP fusion protein (natural protein)
chain: MKLKQNIEKEIIKINNIRIHQYTVLYTSNCTIDVYTKEGSNTYLRNELIFLERGINISVRLQKKKSTVNPFIAIRLSSDTLRRLKDALMIIYGISKVDACSCPNWSKGIIVADADDSVLDTFKSIDHNDDSRITSDLIYLISKIENNRKIIESIYISAVSFFSDKVRNTIEKDLSKRWTLAIIADEFNVSEITIRKRLESEYITFNQILMQSRMSKAALLLLDNSYQISQISNMIGFSSTSYFIRLFVKHFGITPKQFLTYFKSQ
B1 gave a Kd of 0.02 to 0.04 µM.
